# In the RNAGym collection of RNA variant scans (doi:10.1073/pnas.2313332121):
# Fewer inactive variants are shown than the library holds.
# B1: TPR 5TU (parent)
# chain: GGAUCUUCUCGAUCUAACAAAAAAGACAAAUCUGCCACAAAGCUUGAGAGCAUCUUCGGAUGCAGAGGCGGCAGCCUUCGGUGGCGCGAUAGCGCCAACGUUCUCAACUAUGACACGCAAAACGCGUGCUCCGUUGAAUGGAGUUUAUCAUG
# Variants of: B1
# Assay: polymerase ribozyme fitness, log enrichment relative to wild type (log ratio); higher = more active; in vitro selection for triplet polymerase activity
# Procedure, shortened: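 Genotype fitness is the logarithm of its enrichment divided by wild-type enrichment, using inverse-variance-weighted averages of replicates. That logarithm is base 2. Enrichment was measured by Illumina sequencing of input and output libraries from one triplicate in vitro selection round, with frozen incubation at −7 °C, on PCR-built, transcribed mutant libraries of each subunit of a heterodimeric triplet polymerase ribozyme, retaining genotypes with ≥10 input reads and ≥1 read per output.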
row,Variant,polymerase ribozyme fitness (log ratio)
1,G42U A60G U61G C96G C99G C125U A150C,≤ -4.2
2,G42A A60G C87G,≤ -4.2
3,G42U A47C C87A U104G A107G,≤ -4.2
4,A41U G83C A110G G126A,≤ -4.2
5,G42C G94C U111C,≤ -4.2
6,A41U C76A,-1.99
7,G42C G88U C95A,≤ -4.2
8,G42A G48A U102C C103A,≤ -4.2
9,A41U U61A G68U A107C U145G,≤ -4.2
10,G42C U56A G84U A121C,≤ -4.2
11,G42A G58C G59C G88C A91G A106C A107G,≤ -4.2
12,G42C G62C A73C G94U C118G A120U G133C,≤ -4.2
13,G42A U44G U56A G81C C85A G117U,≤ -4.2
14,G42U A47G C99G C116U,≤ -4.2
15,A41U U53A G88A U101G C108U G128C A142C,≤ -4.2
16,G42A C116G A150U,≤ -4.2
17,G42C G84U A138G U146G,≤ -4.2
18,G42A C75G C87A,≤ -4.2
19,A41U G80C G88U C103A A107G,≤ -4.2
20,A41U U82A A142C,-2.88
21,G42C U90C U109A,≤ -4.2
22,G42A U148C,≤ -4.2
23,G42C C79G G124C,≤ -4.2
24,G42A U61A G86A G136C,≤ -4.2

row,Variant,polymerase ribozyme fitness (log ratio)
1,G42C A49G A138C,≤ -4.2
2,G42C U55A A66G U144A,≤ -4.2
3,A41U G50A,-2.68
4,A41U G83U U90G C93G A106U,≤ -4.2
5,G42C G48A C75G C96U U104A,≤ -4.2
6,G42C U45A A52C U77G C85A C116G,≤ -4.2
7,G42A G58U A64G G68U G92C C95U C129U U134C,≤ -4.2
8,G42A G50U U53A U55A G83A U90C U144A,≤ -4.2
9,G42A U53A,≤ -4.2
10,G42A G86A C103U A119C,≤ -4.2
11,G42C C96U C99U,≤ -4.2
12,A41U G83A,-0.754
13,A41U G83U,-1.35
14,G42A G84A,-3.95
15,G42C G46A G68C C95A A106U C108G,≤ -4.2
16,G42A C87G,≤ -4.2
17,G42C A47C C57U G81C C95A,≤ -4.2
18,G42C A49G C54G G83C C85U C96A,≤ -4.2
19,A41U U82G G86U A97U G124C,-3.18
20,A41U C87A A120C U139C A142U,≤ -4.2
21,A41U G83U A150U,-1.02
22,A41U G81A G84C C85A C96U G126A,≤ -4.2
23,G42A G59C C125G,≤ -4.2
24,G42C C54G A91U G124A C131G,≤ -4.2

row,Variant,polymerase ribozyme fitness (log ratio)
1,G42C A60G,-4.05
2,A41U G59A A73G A89U C93G A107G,≤ -4.2
3,A41U G74A C103U C114U U134C,≤ -4.2
4,G42C A60U G92U A119U C125A,≤ -4.2
5,G42A G59A U102G,≤ -4.2
6,G42A G59A,-4.11
7,G42A A73G C87U,≤ -4.2
8,G42A A49G A64G A107U C114U,≤ -4.2
9,G42C C43G U56A G59U C85U C125A U127C,≤ -4.2
10,A41U C93A,-3.19
11,G42C U45A G48U A49C C75U C118G U144C,≤ -4.2
12,G42C U45G U146C,≤ -4.2
13,G42C G86C,≤ -4.2
14,G42C G86U,≤ -4.2
15,G42A A52G U61G G86A C114A,-3.88
16,G42A G88C,≤ -4.2
17,G42C U44A A49U A60C C79U C96U C125A A142G,≤ -4.2
18,A41U C85G,-2.37
19,G42C U56G C114U U127A A138C,≤ -4.2
20,A41U U53A G74C U82C,≤ -4.2
21,G42A A49C C69G A137U,≤ -4.2
22,G42A U55A C96A,-4.06
23,A41U G83C G126A,-2.3
24,A41U C95U C99U G141C,-2.51

row,Variant,polymerase ribozyme fitness (log ratio)
1,G42C C95A A142C,≤ -4.2
2,G42C U44A G70C C96U G126U G141A,≤ -4.2
3,A41U C103G G128U,≤ -4.2
4,A41U C87U A137U G143U,≤ -4.2
5,G42C C95A,≤ -4.2
6,G42A G50A C76U G84U G92A A107C C116G,≤ -4.2
7,G42C C99U,≤ -4.2
8,A41U C103G A113G C125A,≤ -4.2
9,A41U U55A C79U G83A,≤ -4.2
10,G42A G59U C76U G88U C103G G152U,≤ -4.2
11,A41U C96A C105A G117U U144G,≤ -4.2
12,A41U C85A A98G A122U G152U,≤ -4.2
13,A41U G83A A150U,-0.63
14,G42C U82G U104A C116U A137G G152A,≤ -4.2
15,G42C A60G C75G C105U A122G,-4.18
16,G42A G74C G83C A107U G112C,≤ -4.2
17,G42A C51G C75G C99U,≤ -4.2
18,G42C U56G U144A,≤ -4.2
19,G42A C116G,-3.99
20,G42A U55A,-3.81
21,G42A U56A A60U C76A C96A U102G U127A G141U A150G,≤ -4.2
22,A41U C76U G88C U130C,≤ -4.2
23,G42C U55A G70C C96U,≤ -4.2
24,G42A C43A U82A A98G,≤ -4.2

row,Variant,polymerase ribozyme fitness (log ratio)
1,G42A G58A G100C,≤ -4.2
2,G42A C43A G48A G50C A66C C85U,≤ -4.2
3,G42A U78G C116A C125G,≤ -4.2
4,A41U U144G G152A,-1.09
5,G42A A52C C54A U56C G94C,≤ -4.2
6,A41U U55A C85A A150U,-2.65
7,G42C U44A A52G G70U G83C,≤ -4.2
8,G42A U61A G84C G133U U144G,≤ -4.2
9,G42C U44A C54G A91U C99U G143C U145C,≤ -4.2
10,G42C G62U A64C G71A C79G C132G U139G U146G,≤ -4.2
11,G42C G68U C85U G128A A150C,≤ -4.2
12,G42C C72U,≤ -4.2
13,A41U G133U U135A A142G A147U,≤ -4.2
14,G42C U44G A106G,≤ -4.2
15,G42A G59A A66C A73U U78A C87G U146G C149A,≤ -4.2
16,G42A A89G C93U C125U G141U,≤ -4.2
17,A41U G58A G74U C108A A120G G141A,≤ -4.2
18,G42C U55A C85U,≤ -4.2
19,A41U U56A C93A A121U,-3.16
20,G42A C79G U144C,≤ -4.2
21,A41U G84A C96U A107C A147C,≤ -4.2
22,A41U U56A C85A,-2.38
23,A41U U55A A142G,-2.45
24,A41U G50C C76U C93G A138G A150U,≤ -4.2

row,Variant,polymerase ribozyme fitness (log ratio)
1,G42A G59A G92A G100A C125A U146C,≤ -4.2
2,G42C U44A A49C G126C C131A A142G A147U,≤ -4.2
3,A41U G83U G84U A98U A120U G124A,-3.95
4,G42A G68C G94U,≤ -4.2
5,A41U C54G G88C U130A,≤ -4.2
6,G42A A47U U53G A64U G94U A120U,≤ -4.2
7,A41U C85U A91U A107U,≤ -4.2
8,G42A A142C U148G,≤ -4.2
9,G42C C105G,≤ -4.2
10,G42C G80C C93A U104A C108G U145A U146C,≤ -4.2
11,A41U C54U C63U U82A C95G A115U,≤ -4.2
12,G42A G62C C116G C125U A142U A150C,≤ -4.2
13,A41U G124U,-0.896
14,A41U G124A,-1.29
15,A41U C72G U90G C99G G112U C118U,≤ -4.2
16,G42C A47G C57A C75G C125G,≤ -4.2
17,A41U C63G C85A G152U,≤ -4.2
18,G42C C43U A91U C93G,≤ -4.2
19,A41U C63U U102C,-3.6
20,G42A G48U A52U C75A U90C,≤ -4.2
21,G42C G48A C103A U144C,≤ -4.2
22,G42A C54U G117A,≤ -4.2
23,G42A C93A U102G U135A,≤ -4.2
24,A41U C57U G80A,-1.12

row,Variant,polymerase ribozyme fitness (log ratio)
1,G42A G88A C93G U145G C149A,≤ -4.2
2,G42C U44G G88A A97C,≤ -4.2
3,A41U C75A C93U,≤ -4.2
4,G42A C54G U82C G94U,≤ -4.2
5,G42A C85U,≤ -4.2
6,G42A G48A G68A G86U C132A,≤ -4.2
7,G42A G50C U55A G84A G143U,≤ -4.2
8,G42A A49C C54U C95U C118U,≤ -4.2
9,G42C U44G A49U U56C G94U U111C G143A,≤ -4.2
10,G42A U56A C93U,≤ -4.2
11,A41U U55C C63U G86A,-2.8
12,A41U G74A G94C,≤ -4.2
13,G42C A47C U53A U82C G84A A122G A138U G143C,≤ -4.2
14,G42A G58A A64C G65U G84U,≤ -4.2
15,A41U C93A A122G,-4.19
16,G42A G92A C96U A98G U151G,≤ -4.2
17,A41U G68C A91U U102C,≤ -4.2
18,G42C C85U,-3.97
19,A41U G46U A52U,-4.03
20,A41U G50U A64U C118G A150C,≤ -4.2
21,G42C A60U G67C G128U A138U,≤ -4.2
22,G42C C76U C85U A89G U104C,≤ -4.2
23,G42A G86A C118A,≤ -4.2
